# In the supplement of paper PMC10567573:
# B1: WEE1 (parent)
# chain: FISRTSIPNAASEEGDEDDWASNK
# B2: SPDEF (parent)
# chain: FQELAGKELCAMSEEQFRQRSPLG
# B3: LOC100129726 (parent)
# chain: VHTGCHKKLGPEARRPRTRWGKN
# Variants of: B1
# Test: protein stability index of a GFP-peptide fusion (GPS, HEK-293T) (PSI 1-6); higher = more stable
# Conditions: c terminus: a fixed tail appended
# 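Also: lentivirally expressed fusions sorted by FACS into six bins by GFP to DsRed ratio, PSI derived from sequencing read proportions per bin multiplied by bin number.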
row,Variant,protein stability index
1,F1Q,5.63
2,F1S,5.84
3,F1Y,4.39
4,F1L,5.6
5,F1E,5.46
6,F1V,5.41
7,F1M,5.24
8,F1D,5.56
9,F1G,5.71
10,F1C,5.29
11,F1K,5.42
12,F1P,5.89
13,F1W,4.88
14,F1T,5.32
15,F1N,5.29
16,F1I,5.73
17,F1A,5.37
18,F1H,5.37
19,F1R,4.92
20,I2T,4.88
21,I2Y,4.95
22,I2N,5.67

row,Variant,protein stability index
1,I2H,3.36
2,I2M,4.84
3,I2P,5.21
4,I2K,5.46
5,I2G,5.75
6,I2D,5.62
7,I2A,4.66
8,I2W,4.79
9,I2S,5.02
10,I2E,5.59
11,I2L,5.06
12,I2R,5.32
13,I2F,5.38
14,I2Q,4.58
15,I2V,2.78
16,I2C,3.34
17,S3Q,4.09
18,S3D,4.67
19,S3W,2.85
20,S3T,4.26
21,S3M,4
22,S3P,3.67

row,Variant,protein stability index
1,S3C,4.11
2,S3V,3.6
3,S3I,3.21
4,S3K,4.56
5,S3G,3.17
6,S3N,4.62
7,S3R,4.02
8,S3E,4.78
9,S3L,3.95
10,S3Y,3.37
11,S3H,3.59
12,S3F,3.57
13,S3A,4.44
14,R4G,4.62
15,R4E,5.35
16,R4F,3.15
17,R4D,4.92
18,R4A,3.49
19,R4C,4.37
20,R4H,4.15

# Variants of: B2
# Test: as above
# Conditions: c terminus: a fixed tail appended
row,Variant,protein stability index
1,A11V,1.94
2,A11R,2.52
3,A11T,2.31
4,E3S,2.34
5,E3Y,2.69
6,R18Y,2.29
7,E14W,2.95
8,E15F,1.98
9,L9Q,4.25
10,M12K,3.3
11,F17H,3.14
12,S13N,2.48
13,G6E,4.18
14,S21C,2.51
15,S21G,2.52
16,R20V,2.1
17,E8K,2.32
18,Q19C,2.67
19,G24E,2.56
20,Q2W,2.14

# Variants of: B3
# Test: as above
# Conditions: c terminus: native
row,Variant,protein stability index
1,P16E,1.8
2,P16N,3.05
3,P16C,1.24
4,P16S,1.46
5,P16G,3.15
6,P16K,3.74
7,P16Q,1.03
8,P16H,1.39
9,T3Y,1.01
10,T3P,1.67
11,T3I,2.94
12,T3F,1.95
13,T3D,3.27
14,G21T,3.57
15,G21M,3.89
16,G21D,4
17,G21H,4.34
18,G21I,2.85
19,G21W,2.69
20,G21E,4.54
21,G21V,2.78

row,Variant,protein stability index
1,G21C,3.16
2,G21Q,4.45
3,G21P,4.47
4,G21F,3.36
5,G21L,3.56
6,G21K,4.43
7,G21A,3.47
8,G21N,4.39
9,H2L,2.38
10,H2N,2.5
11,H2Y,1.85
12,H2R,4
13,H2Q,2.44
14,H2V,2.99
15,H2K,1.94
16,H2W,1.38
17,H2D,1.82
18,H2P,2.05
19,H2T,1.49
20,H2G,2.38
21,H2M,2.79

row,Variant,protein stability index
1,H2A,2.13
2,P11W,1.46
3,P11F,2.47
4,P11A,2.24
5,P11K,2.05
6,P11D,2.18
7,P11Y,2.17
8,P11S,1.53
9,P11V,2.25
10,P11M,2.37
11,P11T,2.67
12,P11R,1.01
13,G10T,2.48
14,G10P,3.1
15,G10F,1.66
16,G10R,2.37
17,G10K,2.05
18,G10I,1.33
19,G10W,2.17
20,G10A,3.09
21,G10L,1.22

row,Variant,protein stability index
1,G10V,1.39
2,G10H,1.74
3,G10Y,1.29
4,G10M,1.61
5,L9P,2.92
6,L9C,2.4
7,L9N,2.8
8,L9R,2.64
9,L9Q,2.72
10,L9H,1.62
11,L9V,2.02
12,W20L,4.36
13,W20V,3.67
14,W20A,3.77
15,W20M,3.15
16,W20S,4.58
17,W20H,2.02
18,W20F,2.87
19,W20C,2.99
20,W20K,5
